Data published in patent US12540197B2, “Anti-tissue factor antibodies and antibody conjugates, compositions comprising anti-tissue factor antibodies or antibody conjugates, and methods of making and using anti-tissue factor antibodies and antibody conjugates” (SUTRO BIOPHARMA, INC., priority 2023, dated 2026).
Substitutions are numbered along the chain they refer to.

B1: 2842-B01 HC1/LC1 (antibody, V domains shown)
VH: MQVQVVESGGGLVKPGGSLRLSCAASGFSISSYDMSWIRQAPGKGLEWIGIIGSNGRTYYADSVKGRFTISRNTNENTVYLQMNSLRAEDTAVYYCARGLYDGTGNIWGQGTLVTVSS
VL: MDLQMTQSPSSLSASVGDRVTITCRASQSVYGNNWLSWYQQKPGKAPKLLIYGASKLASGVPSRFSGSGSGTQFTLTISSLQPEDFATYYCQGTYYSGDWYFAFGQGTKVEIK
B2: 2842-B01 HC1/LC2 (antibody, V domains shown)
VH: B1 VH
VL: MELVMTQSPPTLSLSPGERVTLSCRASQSVYGNNWLSWYQQKPGQAPRLLIYGASKLATSIPARFSGSGSGTQFTLTISSLQPEDFAVYYCQGTYYSGDWYFAFGQGTKVEIK
B3: 2842-G04 HC2/LC2 (antibody)
heavy: MQVQVQESGPGLVKPPGTLSLTCAVSGFSLSYYGVSWVRQPPGKGLEWIGTIDSSGRTYYNPSLKSRVTISNDNAPNTVSLKLSSVTAADTAVYYCARDFYGWNSGALDIWGQGTLVTVSSASTKGPSVFPLAPSSKSTSGGTAALGCLVKDYFPEPVTVSWNSGALTSGVHTFPAVLQSSGLSLSSVVTVPSSSLGTQTYICNVNHKPSNTKVDKKVEPKSCDKTHTCPPCPAPELLGGPSVFLFPPKPKDTLMISRTPEVTCVVVDVSHEDPEVKFNWYVDGVEVHNAKTKPREEQYNSTYRVVSVLTVLHQDWLNGKEYKCKVSNKALPAPIEKTISKAKGQPREPQVYTLPPSREEMTKNQVSLTCLVKGFYPSDIAVEWESNGQPENNYKTTPPVLDSDGSFLYSKLTVDKSRWQQGNVFSCSVMHEALHNHYTQKSLSLSPGK
light: MDLQLTQSPSTLSASVGDRVTITCRASQSVYSNKYLSWYQQKPGKAPKLLIYKASTLASGVPSRFSGSGSGTEFTLTISSLQPDDFATYYCAAAYSDDSDTAFGQGTKVEIKRTVAAPSVFIFPPSDEQLKSGTASVVCLLNNFYPREAKVQWKVDNALQSGNSQESVTEQDSKDSTYSLSSTLTLSKADYEKHKVYACEVTHQGLSSPVTKSFNRGEC
modifications: conjugated to LP1 at Y180/F404
B4: 2842-B01 HC3/LC1 (antibody)
heavy: MEVQLVESGGGLVQPGGSLRLSCAASGFSISSYDMSWVRQAPGKGLEWIGIIGSNGRTYYPDSVKGRFTISRDNSKNTVTLQMNSLRAEDTAVYYCARGLYDGTGNIWGQGTLVTVSSASTKGPSVFPLAPSSKSTSGGTAALGCLVKDYFPEPVTVSWNSGALTSGVHTFPAVLQSSGLSLSSVVTVPSSSLGTQTYICNVNHKPSNTKVDKKVEPKSCDKTHTCPPCPAPELLGGPSVFLFPPKPKDTLMISRTPEVTCVVVDVSHEDPEVKFNWYVDGVEVHNAKTKPREEQYNSTYRVVSVLTVLHQDWLNGKEYKCKVSNKALPAPIEKTISKAKGQPREPQVYTLPPSREEMTKNQVSLTCLVKGFYPSDIAVEWESNGQPENNYKTTPPVLDSDGSFLYSKLTVDKSRWQQGNVFSCSVMHEALHNHYTQKSLSLSPGK
light: MDLQMTQSPSSLSASVGDRVTITCRASQSVYGNNWLSWYQQKPGKAPKLLIYGASKLASGVPSRFSGSGSGTQFTLTISSLQPEDFATYYCQGTYYSGDWYFAFGQGTKVEIKRTVAAPSVFIFPPSDEQLKSGTASVVCLLNNFYPREAKVQWKVDNALQSGNSQESVTEQDSKDSTYSLSSTLTLSKADYEKHKVYACEVTHQGLSSPVTKSFNRGEC
modifications: conjugated to LP1 at Y180/F404
B5: 2842-B01 HC1/LC3 (antibody)
heavy: B4 heavy with E2Q, L5V, Q14K, V38I, P61A, D73N, N74T, S75N, K76E, T80Y
light: B4 light with L3I, R25Q, Q73D, Q106G
modifications: conjugated to LP1 at Y180/F404

Test system: not listed separately
Test: DSF protein thermal shift assay (melting temperatures TM1/TM2)
Format: physicochemical
Conditions: Table 8, humanized rabbit antibodies; TM2 = Fab domain
Description: (§1) A protein thermal shift assay was carried out by mixing the protein to be assayed with an environmentally sensitive dye (SYPRO Orange, Life Technologies #S-6650) and monitoring the fluorescence of the mixture in real time as it underwent controlled thermal denaturation. Protein solutions between 0.2-2 mg/mL were mixed at a 1:1 volumetric ratio with a solution of SYPRO Orange solution diluted 250-fold in PBS+10% sucrose. 10 μL aliquots of the protein-dye mixture were dispensed in quadruplicate in a 384-well microplate (Bio-Rad #MSP-3852). The plate was sealed with an optically clear sealing film (Bio-Rad #MSB-1001) and placed in a 384-well plate real-time thermocycler (Bio-Rad CFX384 Real Time System). The protein-dye mixture was heated from 25° C. to 95° C., at increments of 0.2° C. per cycle, allowing 3 seconds of equilibration at each temperature before taking a fluorescence measurement. At the end of the experiment, the transition melting temperatures (TM1 and TM2) were determined using the Bio-Rad CFX manager software. TM1 represents the melting temperature of the Fc domain. TM2 represents the melting temperature of the Fab domain.
as §1, with “solutions at 1” for “solutions between 0.2-2”, “a 1-1” for “a 1:1”, “sucrose. 5” for “sucrose. 10”

Question: With B1 as the molecule, how does the “DSF TM2 (° C.)” value read?
Answer: Its value is 87.3 °C.

Question: Which “DSF TM2 (° C.)” value does the source give for B2 here?
Answer: The value was 82.4 °C.

Question: For B3, which “DSF TM2 (° C.)” value is on record?
Answer: Its value is 80.2 °C.

Question: With B4 as the molecule, how does the “DSF TM2 (° C.)” value read?
Answer: Its value is 86.5 °C.

Question: With B5 as the molecule, how does the “DSF TM2 (° C.)” value read?
Answer: The value was 87.6 °C.

Target: T1, human TF (Homo sapiens, UniProt P13726)
T1 construct: purchased Lake Pharma
T1 sequence (P13726 33-295): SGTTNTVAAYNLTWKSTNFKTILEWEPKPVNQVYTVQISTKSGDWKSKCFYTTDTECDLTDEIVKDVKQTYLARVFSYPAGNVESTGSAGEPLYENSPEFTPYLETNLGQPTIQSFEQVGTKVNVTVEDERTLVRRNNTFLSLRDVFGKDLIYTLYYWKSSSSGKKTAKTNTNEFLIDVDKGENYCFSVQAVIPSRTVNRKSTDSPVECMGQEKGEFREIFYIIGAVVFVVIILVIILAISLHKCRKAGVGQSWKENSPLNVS
Test: Biacore off-rate and kinetic binding, human TF
Conditions: Table 11, humanized rabbit antibodies; 100 nM antigen, 25° C.
Description: (§2) Anti-Fc polyclonal antibodies were immobilized onto a CM4 chip (Cytiva #BR100534) using amine coupling chemistry (Human Antibody Capture Kit, Cytiva #BR100839). The immobilization steps were carried out at a flow rate of 25 μL/min in 1×HBS-EP+buffer (Cytiva #BR100669). The sensor surfaces were activated for 7 min with a mixture of N-hydroxysuccinimide (NHS, 0.05 M) and 1-ethyl-3-(3-dimethylaminopropyl)-carbodiimide (EDC, 0.2 M). The anti-Fc polyclonal antibodies were injected over all 4 flow cells at a concentration of 25 μg/mL in 10 mM sodium acetate, pH 4.5, for 7 min. Ethanolamine (1 M, pH 8.5) was injected for 7 min to block any remaining activated groups. Approximately 6,000 response units (RU) of capture antibody was immobilized on each flow cell.
(§3) Off-rate and kinetic binding experiments were performed at 25° C. using 1×HBS-EP+buffer. Antibodies were injected over the anti-Fc surface at a concentration of 3 μg/mL for 12 seconds at a flow rate of 10 μL/min on flow cells 2, 3 and 4, followed by a buffer wash for 30 seconds at the same flow rate. Single point off-rate analysis was carried out using an antigen concentration of 100 nM. […] After capturing ligand (antibody) on the anti-Fc surface, the analyte (human TF, Lake Pharma; cynomolgus TF, Sino Bio #90885-C08H; mouse TF, R&D Systems #3178-PA) was bound for 180 seconds, followed by a 420 second dissociation phase at a flow rate of 50 μL/min. Between each ligand capture and analyte binding cycle, regeneration was carried out using 2 injections of 10 mM glycine pH 2.0 for 30 seconds at 30 μL/min, followed by a 30 second buffer wash step.
(§4) The data were fit with the Biacore T200 Evaluation software, using a 1:1 Langmuir binding model. KD (affinity, nM) was determined as a ratio of the kinetic rate constants calculated from the fits of the association and dissociation phases.
(§5) Anti-Fc polyclonal antibodies were immobilized onto a CM4 chip (Cytiva #BR100534) using amine coupling chemistry (Human Antibody Capture Kit, Cytiva #BR100839). The immobilization steps were carried out at a flow rate of 25 μL/min in 1×HBS-EP+buffer (Cytiva #BR100669). The sensor surfaces were activated for 7 min with a mixture of NHS (0.05 M) and EDC (0.2 M). The Anti-Fc antibodies were injected over all 4 flow cells at a concentration of 25 ug/ml in 10 mM sodium acetate, pH 4.5, for 7 min. Ethanolamine (1 M, pH 8.5) was injected for 7 min to block any remaining activated groups. Approximately 6,000 response units (RU) of capture antibody was immobilized on each flow cell. Off-rate and kinetic binding experiments were performed at 25° C. using 1×HBS-EP+buffer. Antibodies or ADCs were injected over the anti-Fc surface at a concentration of 3 μg/mL for 12 seconds at a flow rate of 10 μL/min on flow cells 2, 3 and 4, followed by a buffer wash for 30 seconds at the same flow rate. […] After capturing ligand (antibody) on the anti-Fc surface, the analyte (human TF, Lake Pharma; cynomolgus TF, Sino Bio #90885-C08H; mouse TF, R&D Systems #3178-PA) was bound for 180 seconds, followed by a 420 second dissociation phase at a flow rate of 50 μL/min. Between each ligand capture and analyte binding cycle, regeneration was carried out using 2 injections of 10 mM Glycine pH 2.0 for 30 seconds at 30 μL/min, followed by a 30 second buffer wash step. The data was fit with the Biacore T200 Evaluation software, using a 1-1 Langmuir binding model. KD (affinity, nM) was determined as a ratio of the kinetic rate constants calculated from the fits of the association and dissociation phases.

Question: With B1 as the molecule, how does the “Biacore human TF single point off-rate kinetics kd” value read?
Answer: Its value is 0.000727 s⁻¹.

Question: Which “Biacore human TF single point off-rate kinetics kd” value does the source give for B2 here?
Answer: The value was 0.000691 s⁻¹.

Question: For B3, which “Biacore human TF single point off-rate kinetics kd” value is on record?
Answer: Its value is 0.000736 s⁻¹.

Question: With B4 as the molecule, how does the “Biacore human TF single point off-rate kinetics kd” value read?
Answer: The value was 0.000416 s⁻¹.

Question: Which “Biacore human TF single point off-rate kinetics kd” value does the source give for B5 here?
Answer: The value was 0.00054 s⁻¹.

Test system: cynomolgus TF
Sequence (as listed by the source): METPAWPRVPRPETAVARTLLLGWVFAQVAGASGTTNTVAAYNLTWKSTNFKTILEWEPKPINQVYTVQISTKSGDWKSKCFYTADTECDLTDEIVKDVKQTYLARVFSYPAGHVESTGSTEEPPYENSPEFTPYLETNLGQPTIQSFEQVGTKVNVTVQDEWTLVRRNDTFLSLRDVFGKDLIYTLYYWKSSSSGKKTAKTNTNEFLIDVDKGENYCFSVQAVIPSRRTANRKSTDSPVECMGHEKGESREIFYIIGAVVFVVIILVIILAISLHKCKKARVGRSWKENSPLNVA
Test: Biacore off-rate and kinetic binding, cynomolgus TF
Conditions: Table 11, humanized rabbit antibodies; 100 nM antigen, 25° C.
Description: as §2, §3, §4, §5

Question: With B1 as the molecule, how does the “Biacore cynomolgus TF single point off-rate kinetics kd” value read?
Answer: The value was 0.00352 s⁻¹.

Question: For B2, which “Biacore cynomolgus TF single point off-rate kinetics kd” value is on record?
Answer: The value was 0.00142 s⁻¹.

Question: For B3, which “Biacore cynomolgus TF single point off-rate kinetics kd” value is on record?
Answer: Its value is 0.0017 s⁻¹.

Question: Which “Biacore cynomolgus TF single point off-rate kinetics kd” value does the source give for B4 here?
Answer: Its value is 0.00187 s⁻¹.

Question: With B5 as the molecule, how does the “Biacore cynomolgus TF single point off-rate kinetics kd” value read?
Answer: Its value is 0.00117 s⁻¹.
